Results on five molecules are retold here after doi:10.1101/2020.02.01.930206 (bioRxiv, 2020).

Series [1] addresses full-length human CIA targeting complex (MMS19-CIAO1-CIAO2B) (human, UniProt Q96T76;O76071;Q9Y3D0). In words: ITC.
The target in series [2] is human MMS19^381-1030-CIAO1-CIAO2B complex (human, UniProt Q96T76;O76071;Q9Y3D0). In words: ITC. Background: In ITC the heat of successive injections is recorded.
The target of series [3] is human CIAO1-CIAO2B core complex (human, UniProt O76071;Q9Y3D0). In words: ITC.
Series [4] concerns the molecule itself. In words: negative-stain electron microscopy.
Series [5] has as its target T1, Drosophila melanogaster CIAO1 (Drosophila melanogaster, UniProt Q7K1Y4 1-335).
T1 sequence: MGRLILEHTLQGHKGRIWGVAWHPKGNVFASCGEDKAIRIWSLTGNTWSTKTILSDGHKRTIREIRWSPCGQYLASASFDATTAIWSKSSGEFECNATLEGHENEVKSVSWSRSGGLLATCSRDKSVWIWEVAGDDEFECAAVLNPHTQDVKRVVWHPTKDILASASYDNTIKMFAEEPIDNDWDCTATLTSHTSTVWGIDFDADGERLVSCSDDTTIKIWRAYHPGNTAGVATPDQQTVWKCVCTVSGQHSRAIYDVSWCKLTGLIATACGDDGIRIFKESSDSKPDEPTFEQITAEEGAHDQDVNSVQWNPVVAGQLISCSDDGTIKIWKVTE
The series is described as follows: crystal structure.

In the next series the target is T2, full-length mouse MMS19 (mouse, UniProt Q9D071 1-1031).
T2 sequence: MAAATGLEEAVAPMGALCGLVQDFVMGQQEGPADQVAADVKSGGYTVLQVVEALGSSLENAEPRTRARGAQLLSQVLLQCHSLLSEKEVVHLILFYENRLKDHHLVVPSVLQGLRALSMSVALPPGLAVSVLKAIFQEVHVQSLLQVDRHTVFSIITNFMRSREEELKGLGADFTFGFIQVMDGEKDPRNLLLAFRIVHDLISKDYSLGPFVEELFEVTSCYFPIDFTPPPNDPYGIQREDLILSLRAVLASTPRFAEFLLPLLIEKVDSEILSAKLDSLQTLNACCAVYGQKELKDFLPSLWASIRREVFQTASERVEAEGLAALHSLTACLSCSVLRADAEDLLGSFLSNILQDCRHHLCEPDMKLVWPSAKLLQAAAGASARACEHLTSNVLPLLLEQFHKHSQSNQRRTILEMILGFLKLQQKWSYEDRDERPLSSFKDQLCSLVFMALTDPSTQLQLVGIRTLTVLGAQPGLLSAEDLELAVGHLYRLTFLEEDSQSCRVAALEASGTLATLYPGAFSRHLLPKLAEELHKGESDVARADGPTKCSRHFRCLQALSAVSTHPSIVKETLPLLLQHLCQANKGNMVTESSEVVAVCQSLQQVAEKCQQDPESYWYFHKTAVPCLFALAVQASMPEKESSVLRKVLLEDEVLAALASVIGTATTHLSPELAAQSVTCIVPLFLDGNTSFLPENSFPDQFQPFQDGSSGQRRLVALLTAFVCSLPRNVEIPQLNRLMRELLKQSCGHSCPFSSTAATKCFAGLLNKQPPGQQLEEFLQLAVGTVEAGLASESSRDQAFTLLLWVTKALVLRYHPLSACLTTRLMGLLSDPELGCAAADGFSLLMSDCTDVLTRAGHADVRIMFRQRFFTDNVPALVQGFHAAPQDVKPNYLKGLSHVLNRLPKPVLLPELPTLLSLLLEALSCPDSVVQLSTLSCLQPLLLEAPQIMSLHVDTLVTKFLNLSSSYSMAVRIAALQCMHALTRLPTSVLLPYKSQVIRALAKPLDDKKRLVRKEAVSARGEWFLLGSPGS
In words: crystal structure.

The series “crystal structure” deals with the molecule itself. The series is described as follows: crystal structure.

Chain of human MMS19^381-1030-CIAO1-CIAO2B complex (O76071 whole entry, one chain of several): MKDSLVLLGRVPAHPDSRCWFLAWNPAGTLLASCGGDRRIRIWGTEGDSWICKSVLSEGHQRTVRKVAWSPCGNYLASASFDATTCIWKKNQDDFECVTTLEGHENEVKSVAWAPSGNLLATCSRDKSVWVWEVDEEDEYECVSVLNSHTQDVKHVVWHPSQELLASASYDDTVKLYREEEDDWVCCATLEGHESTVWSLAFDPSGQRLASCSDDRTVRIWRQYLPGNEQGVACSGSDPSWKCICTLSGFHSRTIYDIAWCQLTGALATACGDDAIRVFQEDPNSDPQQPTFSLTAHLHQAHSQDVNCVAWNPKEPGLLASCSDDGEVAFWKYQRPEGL
Chain of human CIAO1-CIAO2B core complex (O76071 whole entry, one chain of several): as above
Chain of full-length human CIA targeting complex (MMS19-CIAO1-CIAO2B) (O76071 whole entry, one chain of several): as above

B1: human primase (PriL-PriS heterodimer) (complex)
chain 1: MEFSGRKWRKLRLAGDQRNASYPHCLQFYLQPPSENISLIEFENLAIDRVKLLKSVENLGVSYVKGTEQYQSKLESELRKLKFSYRENLEDEYEPRRRDHISHFILRLAYCQSEELRRWFIQQEMDLLRFRFSILPKDKIQDFLKDSQLQFEAISDEEKTLREQEIVASSPSLSGLKLGFESIYKIPFADALDLFRGRKVYLEDGFAYVPLKDIVAIILNEFRAKLSKALALTARSLPAVQSDERLQPLLNHLSHSYTGQDYSTQGNVGKISLDQIDLLSTKSFPPCMRQLHKALRENHHLRHGGRMQYGLFLKGIGLTLEQALQFWKQEFIKGKMDPDKFDKGYSYNIRHSFGKEGKRTDYTPFSCLKIILSNPPSQGDYHGCPFRHSDPELLKQKLQSYKISPGGISQILDLVKGTHYQVACQKYFEMIHNVDDCGFSLNHPNQFFCESQRILNGGKDIKKEPIQPETPQPKPSVQKTKDASSALASLNSSLEMDMEGLEDYFSEDS
chain 2: METFDPTELPELLKLYYRRLFPYSQYYRWLNYGGVIKNYFQHREFSFTLKDDIYIRYQSFNNQSDLEKEMQKMNPYKIDIGAVYSHRPNQHNTVKLGAFQAQEKELVFDIDMTDYDDVRRCCSSADICPKCWTLMTMAIRIIDRALKEDFGFKHRLWVYSGRRGVHCWVCDESVRKLSSAVRSGIVEYLSLVKGGQDVKKKVHLSEKIHPFIRKSINIIKKYFEEYALVNQDILENKESWDKILALVPETIHDELQQSFQKSHNSLQRWEHLKKVASRYQNNIKNDKYGPWLEWEIMLQYCFPRLDINVSKGINHLLKSPFSVHPKTGRISVPIDLQKVDQFDPFTVPTISFICRELDAISTNEEEKEENEAESDVKHRTRDYKKTSLAPYVKVFEHFLENLDKSRKGELLKKSDLQKDF
Broadly, the Kd is the concentration at which binding is half-saturated. The low end stands for a tighter complex, the high end for a looser complex. On to B1, for which the figures for the Kd in series [1] and in series [2] were 35 nM and 508 nM, respectively.

B2: human primase small subunit PriS (natural protein)
chain: METFDPTELPELLKLYYRRLFPYSQYYRWLNYGGVIKNYFQHREFSFTLKDDIYIRYQSFNNQSDLEKEMQKMNPYKIDIGAVYSHRPNQHNTVKLGAFQAQEKELVFDIDMTDYDDVRRCCSSADICPKCWTLMTMAIRIIDRALKEDFGFKHRLWVYSGRRGVHCWVCDESVRKLSSAVRSGIVEYLSLVKGGQDVKKKVHLSEKIHPFIRKSINIIKKYFEEYALVNQDILENKESWDKILALVPETIHDELQQSFQKSHNSLQRWEHLKKVASRYQNNIKNDKYGPWLEWEIMLQYCFPRLDINVSKGINHLLKSPFSVHPKTGRISVPIDLQKVDQFDPFTVPTISFICRELDAISTNEEEKEENEAESDVKHRTRDYKKTSLAPYVKVFEHFLENLDKSRKGELLKKSDLQKDF
B2 had a Kd in series [3] of 3.1 µM. This lies in the single-digit micromolar range.

B3: all-mouse CIA targeting complex (MmMMS19-MmCIAO1-CIAO2B) (complex)
chain 1: MAAATGLEEAVAPMGALCGLVQDFVMGQQEGPADQVAADVKSGGYTVLQVVEALGSSLENAEPRTRARGAQLLSQVLLQCHSLLSEKEVVHLILFYENRLKDHHLVVPSVLQGLRALSMSVALPPGLAVSVLKAIFQEVHVQSLLQVDRHTVFSIITNFMRSREEELKGLGADFTFGFIQVMDGEKDPRNLLLAFRIVHDLISKDYSLGPFVEELFEVTSCYFPIDFTPPPNDPYGIQREDLILSLRAVLASTPRFAEFLLPLLIEKVDSEILSAKLDSLQTLNACCAVYGQKELKDFLPSLWASIRREVFQTASERVEAEGLAALHSLTACLSCSVLRADAEDLLGSFLSNILQDCRHHLCEPDMKLVWPSAKLLQAAAGASARACEHLTSNVLPLLLEQFHKHSQSNQRRTILEMILGFLKLQQKWSYEDRDERPLSSFKDQLCSLVFMALTDPSTQLQLVGIRTLTVLGAQPGLLSAEDLELAVGHLYRLTFLEEDSQSCRVAALEASGTLATLYPGAFSRHLLPKLAEELHKGESDVARADGPTKCSRHFRCLQALSAVSTHPSIVKETLPLLLQHLCQANKGNMVTESSEVVAVCQSLQQVAEKCQQDPESYWYFHKTAVPCLFALAVQASMPEKESSVLRKVLLEDEVLAALASVIGTATTHLSPELAAQSVTCIVPLFLDGNTSFLPENSFPDQFQPFQDGSSGQRRLVALLTAFVCSLPRNVEIPQLNRLMRELLKQSCGHSCPFSSTAATKCFAGLLNKQPPGQQLEEFLQLAVGTVEAGLASESSRDQAFTLLLWVTKALVLRYHPLSACLTTRLMGLLSDPELGCAAADGFSLLMSDCTDVLTRAGHADVRIMFRQRFFTDNVPALVQGFHAAPQDVKPNYLKGLSHVLNRLPKPVLLPELPTLLSLLLEALSCPDSVVQLSTLSCLQPLLLEAPQIMSLHVDTLVTKFLNLSSSYSMAVRIAALQCMHALTRLPTSVLLPYKSQVIRALAKPLDDKKRLVRKEAVSARGEWFLLGSPGS
chain 2: not shown
chain 3: MVGGGGSGGGLLENANPLIYERSGERPVTAGEEDEEVPDSIDAREIFDLIRSINDPEHPLTLEELNVVEQVRIQVSDPESTVAVAFTPTIPHCSMATLIGLSIKVKLLRSLPQRFKMDVHITPGTHASEHAVNKQLADKERVAAALENTHLLEVVNQCLSARS
As to B3, in series [4], the binding result is reported as “binds”.

B4: Drosophila melanogaster CIAO2B (natural protein)
chain: MPTEIENINPNVYDRIKERVLTANEEDENVPDPFDKREIFDLIRNINDPEHPLTLEELHVVQEDLIRINDSQNSVHISFTPTIPHCSMATLIGLSIRVKLLRSLPPRFKVTVEITPGTHASELAVNKQLADKERVAAALENNHLAEVINQCIAAKG
In the case of B4, the binding result (in series [5]; with full-length mouse MMS19; in the series “crystal structure”) was “binds” throughout.

B5: Drosophila melanogaster CIAO1-CIAO2B core complex (complex)
chain 1: MGRLILEHTLQGHKGRIWGVAWHPKGNVFASCGEDKAIRIWSLTGNTWSTKTILSDGHKRTIREIRWSPCGQYLASASFDATTAIWSKSSGEFECNATLEGHENEVKSVSWSRSGGLLATCSRDKSVWIWEVAGDDEFECAAVLNPHTQDVKRVVWHPTKDILASASYDNTIKMFAEEPIDNDWDCTATLTSHTSTVWGIDFDADGERLVSCSDDTTIKIWRAYHPGNTAGVATPDQQTVWKCVCTVSGQHSRAIYDVSWCKLTGLIATACGDDGIRIFKESSDSKPDEPTFEQITAEEGAHDQDVNSVQWNPVVAGQLISCSDDGTIKIWKVTE
chain 2: MPTEIENINPNVYDRIKERVLTANEEDENVPDPFDKREIFDLIRNINDPEHPLTLEELHVVQEDLIRINDSQNSVHISFTPTIPHCSMATLIGLSIRVKLLRSLPPRFKVTVEITPGTHASELAVNKQLADKERVAAALENNHLAEVINQCIAAKG
Regarding B5, the binding result in the series with full-length mouse MMS19 was “binds”.
